The results in this text go back to article PMC7809202, “Identification of fidelity-governing factors in human recombinases DMC1 and RAD51 from cryo-EM structures” (Nature Communications, 2021).

Changes are numbered by the printed parent chain. In names and notes the source's numbering stands.

Series [1] deals with T1, human RAD51 (Homo sapiens, UniProt Q06609, V273P/D274G).
T1 construct: untagged as described, human cDNA in pET11, E. coli BLR pRARE host; helical filament on dsDNA
T1 sequence (Q06609 2-339 V273P/D274G): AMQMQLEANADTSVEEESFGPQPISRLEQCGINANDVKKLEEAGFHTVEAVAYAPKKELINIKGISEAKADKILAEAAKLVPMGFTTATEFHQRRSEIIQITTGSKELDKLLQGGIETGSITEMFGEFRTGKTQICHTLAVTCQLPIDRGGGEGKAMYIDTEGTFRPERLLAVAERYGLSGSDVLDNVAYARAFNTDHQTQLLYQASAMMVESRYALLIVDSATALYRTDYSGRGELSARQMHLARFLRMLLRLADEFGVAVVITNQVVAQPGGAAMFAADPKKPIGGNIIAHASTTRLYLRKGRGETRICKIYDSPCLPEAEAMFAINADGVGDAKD
Nature of the series: cryo-EM structure of filament. The settings on record: 2 mM AMP-PNP, 5 mM CaCl2, pH 7.5, 37 °C; homologous dsDNA filament; ATP-binding site.

In series [2] the target is T2, DMC1 WT (Homo sapiens, UniProt Q14565 1-340).
T2 sequence: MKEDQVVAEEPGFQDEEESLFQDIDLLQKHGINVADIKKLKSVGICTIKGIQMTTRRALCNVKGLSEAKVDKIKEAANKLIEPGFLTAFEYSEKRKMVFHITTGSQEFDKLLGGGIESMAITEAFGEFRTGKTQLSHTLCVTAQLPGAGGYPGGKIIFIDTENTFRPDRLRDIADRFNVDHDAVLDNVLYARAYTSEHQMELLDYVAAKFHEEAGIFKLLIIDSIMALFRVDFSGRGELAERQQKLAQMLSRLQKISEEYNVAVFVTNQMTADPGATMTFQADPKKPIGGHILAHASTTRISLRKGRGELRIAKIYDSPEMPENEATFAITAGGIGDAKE
As to the kind of experiment: cryo-EM structure; EMSA: 35 mM Tris-HCl pH 7.5, 1 mM DTT, 10 mM MgCl2, 100 ng/ul BSA, 50 mM KCl, 2 mM ATP, 37 °C 10 min; DNA 3 uM nucleotides or base pairs. The settings on record: protein: recombinant, tags: His6, blunt. A general note: A gel shift assay detects complexes by their altered migration in electrophoresis.

Series [3] deals with the molecule itself. Nature of the series: cryo-EM structure; helical filaments: 4 uM DMC1 (or RAD51) protein with 24 uM nucleotides of ssDNA (presynaptic) or dsDNA (postsynaptic) in 35 mM Tris-HCl pH 7.5, 108 mM KCl, 1 mM DTT, 2 mM AMP-PNP, 5 mM CaCl2, 37 °C, 30 min; helical reconstruction; protomer to protomer within a nucleoprotein filament.
The target in series [4] is T3, DMC1-QmPvGd (Homo sapiens, UniProt Q14565 1-340, Q244M;P274V;G275D).
T3 sequence: T2 sequence with Q244M, P274V, G275D
Nature of the series: EMSA; 2 mM ATP, 10 mM Mg2+; EMSA: 35 mM Tris-HCl pH 7.5, 1 mM DTT, 10 mM MgCl2, 100 ng/ul BSA, 50 mM KCl, 2 mM ATP, 37 °C 10 min; DNA 3 uM nucleotides or base pairs. The settings on record: protein: recombinant, tags: His6.

Series [5] addresses T4, DMC1-PvGd (Homo sapiens, UniProt Q14565 1-340, P274V;G275D).
T4 sequence: T2 sequence with P274V, G275D
The series is described as above. The settings on record: protein: recombinant, tags: His6.

Series [6] addresses T2, DMC1 WT. Nature of the series: cryo-EM structure; AMP-PNP; EMSA: 35 mM Tris-HCl pH 7.5, 1 mM DTT, 10 mM MgCl2, 100 ng/ul BSA, 50 mM KCl, 2 mM ATP, 37 °C 10 min; DNA 3 uM nucleotides or base pairs. The settings on record: protein: recombinant; tags: His6; single strand.
Series [7] addresses T5, DMC1-Q244M (Qm) (Homo sapiens, UniProt Q14565 1-340, Q244M).
T5 sequence: T2 sequence with Q244M
Nature of the series: cryo-EM structure; DNA too flexible to be observed; EMSA: 35 mM Tris-HCl pH 7.5, 1 mM DTT, 10 mM MgCl2, 100 ng/ul BSA, 50 mM KCl, 2 mM ATP, 37 °C 10 min; DNA 3 uM nucleotides or base pairs. The settings on record: protein: recombinant; tags: His6; blunt.

Where [8] appears, read: label: 5'-32P (EMSA), single strand.
Setting [9] is: label: 5'-32P on Oligo 1, blunt.

As to `Nc1ncnc2c1ncn2[C@@H]1O[C@H](COP(=O)(O)OP(=O)(O)NP(=O)(O)O)[C@@H](O)[C@H]1O` [AMP-PNP], in series [1], the “cryo-EM structure of filament” value is “solved the structure of the dsDNA filaments of the double mutant RAD51-VpDg”.

B1: Oligo 3/Oligo 5 15 bp mismatched dsDNA (dsDNA)
DNA 1: ACGGGCAACAGCTGA
DNA 2: TCAGCTGTCGCCCGT
In the case of B1, the binding result in series [2] (one A-C mismatch) was “binds”.

B2: human RAD51-V273P/D274G (natural protein)
chain: MAMQMQLEANADTSVEEESFGPQPISRLEQCGINANDVKKLEEAGFHTVEAVAYAPKKELINIKGISEAKADKILAEAAKLVPMGFTTATEFHQRRSEIIQITTGSKELDKLLQGGIETGSITEMFGEFRTGKTQICHTLAVTCQLPIDRGGGEGKAMYIDTEGTFRPERLLAVAERYGLSGSDVLDNVAYARAFNTDHQTQLLYQASAMMVESRYALLIVDSATALYRTDYSGRGELSARQMHLARFLRMLLRLADEFGVAVVITNQVVAQPGGAAMFAADPKKPIGGNIIAHASTTRLYLRKGRGETRICKIYDSPCLPEAEAMFAINADGVGDAKD
notes: RAD51, human; site-directed mutant of the RAD51 cDNA in vector pET11; Protomer of a helical filament assembled on dsDNA with AMP-PNP and Ca2+; also called RAD51-VpDg; RAD51-V273P, D274G mutant
As to B2, the binding result in series [3] is “binds”.

B3: human DMC1 (wild type) (natural protein)
chain: T2 sequence
notes: DMC1, human; cDNA in vector pRSFDuet; Protomer of a helical filament assembled on ssDNA or dsDNA with AMP-PNP and Ca2+; also called DMC1-WT; WT DMC1; source: E. coli RecA-deficient BLR strain with pRARE, purified (TALON, Source Q, macrohydroxyapatite, Mono Q)
On to B3, for which the binding result in series [3] is “binds”.

B4: human DMC1-Q244M (natural protein)
chain: T2 sequence with Q244M
notes: DMC1, human; site-directed mutant of the DMC1 cDNA in pRSFDuet; Protomer of a helical filament assembled with homologous dsDNA, AMP-PNP and Ca2+; the DNA density was not observable in the map; also called DMC1-Qm; source: E. coli BLR pRARE, purified as described for the WT protein
For the molecule B4, the binding result in series [3] is recorded as “binds”.

B5: Oligo 1 80-mer ssDNA (ssDNA)
DNA: TTATGTTCATTTTTTATATCCTTTACTTTATTTTCTCTGTTTATTCATTTACTTATTTTGTATTATCCTTATCTTATTTA
B5: the binding signal in series [4] (setting [8]) is ~40 % of WT binding (approx. 60% lost); in series [5] (setting [8]), ~60 % of WT binding (approx. 40% lost).

B6: Oligo 1 80-mer ssDNA, unlabeled (ssDNA)
DNA: B5 DNA
With B6, the binding result in series [6] is “binds”.

B7: Oligo 1/Oligo 2 80 bp dsDNA (dsDNA)
DNA 1: B5 DNA
DNA 2: TAAATAAGATAAGGATAATACAAAATAAGTAAATGAATAAACAGAGAAAATAAAGTAAAGGATATAAAAAATGAACATAA
On to B7, for which the binding signal was ~40 % of WT binding (approx. 60% lost) in series [4] (setting [9]) and ~60 % of WT binding (approx. 40% lost) in series [5] (setting [9]).

B8: Oligo 3/Oligo 4 15 bp homologous dsDNA (dsDNA)
DNA 1: ACGGGCAACAGCTGA
DNA 2: TCAGCTGTTGCCCGT
As to B8, the binding result in series [7] and in series [2] was “binds” each time.
